Paper doi:10.1101/2023.08.25.554913 (bioRxiv, 2023)

Target: the molecule itself
Test: SEC

B1: PfuAmyGT (PF0272) from Pyrococcus furiosus, wild type (enzyme, UniProt P49067 1-649, looked up)
chain: MGDKINFIFGIHNHQPLGNFGWVFEEAYEKCYWPFLETLEEYPNMKVAIHTSGPLIEWLQDNRPEYIDLLRSLVKRGQVEIVVAGFYEPVLASIPKEDRIEQIRLMKEWAKSIGFDARGVWLTERVWQPELVKTLKESGIDYVIVDDYHFMSAGLSKEELYWPYYTEDGGEVIAVFPIDEKLRYLIPFRPVDKVLEYLHSLIDGDESKVAVFHDDGEKFGIWPGTYEWVYEKGWLREFFDRISSDEKINLMLYTEYLEKYKPRGLVYLPIASYFEMSEWSLPAKQARLFVEFVNELKVKGIFEKYRVFVRGGIWKNFFYKYPESNYMHKRMLMVSKLVRNNPEARKYLLRAQCNDAYWHGLFGGVYLPHLRRAIWNNLIKANSYVSLGKVIRDIDYDGFEEVLIENDNFYAVFKPSYGGSLVEFSSKNRLVNYVDVLARRWEHYHGYVESQFDGVASIHELEKKIPDEIRKEVAYDKYRRFMLQDHVVPLGTTLEDFMFSRQQEIGEFPRVPYSYELLDGGIRLKREHLGIEVEKTVKLVNDGFEVEYIVNNKTGNPVLFAVELNVAVQSIMESPGVLRGKEIVVDDKYAVGKFALKFEDEMEVWKYPVKTLSQSESGWDLIQQGVSYIVPIRLEDKIRFKLKFEEASG
**Q.** B1 was tested. Which “stoichiometry N” value did it give?
**A.** 2
